Source: paper PMC9817892

Assays:
p63 [1] = biological target: p63 (UniProt Q9H3D4); test: co-immunoprecipitation, Western blot; settings: reference: Nur77 wild type; sites S351
p63 [2] = biological target: p63 (UniProt Q9H3D4); test: co-immunoprecipitation from metastatic tissue; settings: reference: Nur77 wild type; sites S351

## Nur77 (from UniProt P22736) Nur77 S351A
p63 [1]
  binding against the reference: lost
p63 [2]
  binding against the reference: weaker
